Test results reported in patent publication US20190233493A1 (Sanofi, published 2019).
*1 amine or outer side, *2 acyl side, *3 side chain or, on linkers, in order; H or OH if unused. Primed or numbered codes have the meaning given here. Side-chain parts run from the residue outwards. [ ]: non-standard residue; d: D form. The star is where a group is joined. PEG12 = NCCOCCOCCOCCOCCOCCOCCOCCOCCOCCOCCOCCOCCC(=O)O; γGlu = O=C(O)[C@H](CCC(=O)[*:2])N[*:1]; 1Nal = N[C@@H](Cc1cccc2ccccc12)C(=O)O; Stearoyl = CCCCCCCCCCCCCCCCCC(=O)*; Palmitoyl = CCCCCCCCCCCCCCCC(=O)*; αMeK = C[C@](N)(CCCCN)C(=O)O; Nle = CCCC[C@H](N)C(=O)O; PEG2′ = PEG2 spacer unit; Aib = CC(C)(N)C(=O)O

T1: RXFP1 receptor (UniProt Q9HBX9 1-757, limits assumed)
T1 sequence (looked up): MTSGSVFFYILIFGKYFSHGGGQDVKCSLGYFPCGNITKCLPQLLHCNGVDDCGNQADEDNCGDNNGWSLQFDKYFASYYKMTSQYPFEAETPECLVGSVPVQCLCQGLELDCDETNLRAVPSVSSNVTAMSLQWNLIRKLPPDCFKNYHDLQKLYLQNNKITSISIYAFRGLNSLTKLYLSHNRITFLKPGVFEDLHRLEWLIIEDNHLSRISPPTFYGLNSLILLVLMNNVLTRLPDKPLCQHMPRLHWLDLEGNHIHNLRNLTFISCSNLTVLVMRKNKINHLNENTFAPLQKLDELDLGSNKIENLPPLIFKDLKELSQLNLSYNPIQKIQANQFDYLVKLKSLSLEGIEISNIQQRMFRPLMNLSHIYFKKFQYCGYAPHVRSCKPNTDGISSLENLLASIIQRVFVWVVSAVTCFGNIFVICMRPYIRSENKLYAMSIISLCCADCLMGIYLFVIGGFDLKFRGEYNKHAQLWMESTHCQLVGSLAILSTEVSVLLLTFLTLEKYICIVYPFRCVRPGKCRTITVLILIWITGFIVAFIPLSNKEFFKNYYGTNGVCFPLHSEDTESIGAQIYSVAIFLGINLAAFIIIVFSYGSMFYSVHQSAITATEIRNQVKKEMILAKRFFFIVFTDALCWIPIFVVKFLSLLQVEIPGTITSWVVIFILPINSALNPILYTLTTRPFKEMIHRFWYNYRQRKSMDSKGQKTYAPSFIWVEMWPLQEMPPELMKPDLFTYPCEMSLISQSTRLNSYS


target: T1, RXFP1 receptor; assay: cell-based or functional assay

Row | EC50 (nM), OVCAR 5 cells (cAMP) | EMax, OVCAR 5 cells (cAMP) | Binder
1 | 0.21 nM | 89% | Ac-LEGREKVRAK(Ac)I[Aib][Aib]EG[Nle]STWS[Aib]RK[PEG12]K([γGlu-γGlu-γGlu-Palmitoyl])-NH2 (SMILES CCCCCCCCCCCCCCCC(=O)N[C@@H](CCC(=O)N[C@@H](CCC(=O)N[C@@H](CCC(=O)NCCCC[C@H](NC(=O)CCOCCOCCOCCOCCOCCOCCOCCOCCOCCOCCOCCOCCNC(=O)[C@H](CCCCN)NC(=O)[C@H](CCCNC(=N)N)NC(=O)C(C)(C)NC(=O)[C@H](CO)NC(=O)[C@H](Cc1c[nH]c2ccccc12)NC(=O)[C@@H](NC(=O)[C@H](CO)NC(=O)[C@H](CCCC)NC(=O)CNC(=O)[C@H](CCC(=O)O)NC(=O)C(C)(C)NC(=O)C(C)(C)NC(=O)[C@@H](NC(=O)[C@H](CCCCNC(C)=O)NC(=O)[C@H](C)NC(=O)[C@H](CCCNC(=N)N)NC(=O)[C@@H](NC(=O)[C@H](CCCCN)NC(=O)[C@H](CCC(=O)O)NC(=O)[C@H](CCCNC(=N)N)NC(=O)CNC(=O)[C@H](CCC(=O)O)NC(=O)[C@H](CC(C)C)NC(C)=O)C(C)C)[C@@H](C)CC)[C@@H](C)O)C(N)=O)C(=O)O)C(=O)O)C(=O)O) [peptide of SEQ ID NO: 38]
2 | 0.14 nM | 106% | Ac-LEGREKVRAK(Ac)I[Aib][Aib]EG[Nle]STWS[αMeK]RKK(Ac)[PEG12]K([γGlu-γGlu-γGlu-γGlu-Palmitoyl])-NH2 [peptide of SEQ ID NO: 43]
3 | 0.01 nM | 91% | Ac-LEGREKVRAK(Ac)I[Aib][Aib]EG[Nle]STWS[αMeK]RKK(Ac)[PEG12]K([γGlu-γGlu-γGlu-γGlu-Stearoyl])-NH2 (SMILES CCCCCCCCCCCCCCCCCC(=O)N[C@@H](CCC(=O)N[C@@H](CCC(=O)N[C@@H](CCC(=O)N[C@@H](CCC(=O)NCCCC[C@H](NC(=O)CCOCCOCCOCCOCCOCCOCCOCCOCCOCCOCCOCCOCCNC(=O)[C@H](CCCCNC(C)=O)NC(=O)[C@H](CCCCN)NC(=O)[C@H](CCCNC(=N)N)NC(=O)[C@](C)(CCCCN)NC(=O)[C@H](CO)NC(=O)[C@H](Cc1c[nH]c2ccccc12)NC(=O)[C@@H](NC(=O)[C@H](CO)NC(=O)[C@H](CCCC)NC(=O)CNC(=O)[C@H](CCC(=O)O)NC(=O)C(C)(C)NC(=O)C(C)(C)NC(=O)[C@@H](NC(=O)[C@H](CCCCNC(C)=O)NC(=O)[C@H](C)NC(=O)[C@H](CCCNC(=N)N)NC(=O)[C@@H](NC(=O)[C@H](CCCCN)NC(=O)[C@H](CCC(=O)O)NC(=O)[C@H](CCCNC(=N)N)NC(=O)CNC(=O)[C@H](CCC(=O)O)NC(=O)[C@H](CC(C)C)NC(C)=O)C(C)C)[C@@H](C)CC)[C@@H](C)O)C(N)=O)C(=O)O)C(=O)O)C(=O)O)C(=O)O) [peptide of SEQ ID NO: 42]
4 | 16.1 nM | 75% | Ac-LEGREKVRAK(Ac)I[Aib][Aib]EGQSTYS[Aib]RKK(Ac)K([PEG2′-PEG2′-PEG2′-γGlu-γGlu-γGlu-Palmitoyl])-NH2 [peptide of SEQ ID NO: 44]
5 | 0.09 nM | 87% | Ac-LEGREKVRAK(Ac)I[Aib][Aib]EG[Nle]STWX[Aib]RKK(Ac)[PEG12]K([γGlu-γGlu-γGlu-Stearoyl])-NH2 (not fully specified (some residues); printed as Ac-L-E-G-R-E-K-V-R-A-K(Ac)-I-Aib-Aib-E-G-Nle-S-T-W-Mse-Aib-R-K-K(Ac)-PEG12-K(gE-gE-gE-Stea)-NH2) [peptide of SEQ ID NO: 41]
6 | 0.02 nM | 90% | Ac-LEGREKVRAK(Ac)I[Aib][Aib]EG[Nle]STWXXRKK(Ac)[PEG12]K([γGlu-γGlu-γGlu-γGlu-Stearoyl])-NH2 (not fully specified (some residues); printed as Ac-L-E-G-R-E-K-V-R-A-K(Ac)-I-Aib-Aib-E-G-Nle-S-T-W-Mse-Mly-R-K-K(Ac)-PEG12-K(gE-gE-gE-gE-Stea)-NH2) [peptide of SEQ ID NO: 40]
7 | 2.49 nM | 83% | Ac-LEGREKVR[Aib]K(Ac)I[Aib][Aib]EG[Nle]ST[1Nal]S[Aib]RKK(Ac)[PEG12]K([γGlu-γGlu-γGlu-Stearoyl])-NH2 (SMILES CCCCCCCCCCCCCCCCCC(=O)N[C@@H](CCC(=O)N[C@@H](CCC(=O)N[C@@H](CCC(=O)NCCCC[C@H](NC(=O)CCOCCOCCOCCOCCOCCOCCOCCOCCOCCOCCOCCOCCNC(=O)[C@H](CCCCNC(C)=O)NC(=O)[C@H](CCCCN)NC(=O)[C@H](CCCNC(=N)N)NC(=O)C(C)(C)NC(=O)[C@H](CO)NC(=O)[C@H](Cc1cccc2ccccc12)NC(=O)[C@@H](NC(=O)[C@H](CO)NC(=O)[C@H](CCCC)NC(=O)CNC(=O)[C@H](CCC(=O)O)NC(=O)C(C)(C)NC(=O)C(C)(C)NC(=O)[C@@H](NC(=O)[C@H](CCCCNC(C)=O)NC(=O)C(C)(C)NC(=O)[C@H](CCCNC(=N)N)NC(=O)[C@@H](NC(=O)[C@H](CCCCN)NC(=O)[C@H](CCC(=O)O)NC(=O)[C@H](CCCNC(=N)N)NC(=O)CNC(=O)[C@H](CCC(=O)O)NC(=O)[C@H](CC(C)C)NC(C)=O)C(C)C)[C@@H](C)CC)[C@@H](C)O)C(N)=O)C(=O)O)C(=O)O)C(=O)O) [peptide of SEQ ID NO: 37]
8 | 0.89 nM | 84% | Ac-LEGREKVR[Aib]K(Ac)I[Aib][Aib]EG[Nle]STWS[Aib]RKK(Ac)[PEG12]K([γGlu-γGlu-γGlu-Stearoyl])-NH2 (SMILES CCCCCCCCCCCCCCCCCC(=O)N[C@@H](CCC(=O)N[C@@H](CCC(=O)N[C@@H](CCC(=O)NCCCC[C@H](NC(=O)CCOCCOCCOCCOCCOCCOCCOCCOCCOCCOCCOCCOCCNC(=O)[C@H](CCCCNC(C)=O)NC(=O)[C@H](CCCCN)NC(=O)[C@H](CCCNC(=N)N)NC(=O)C(C)(C)NC(=O)[C@H](CO)NC(=O)[C@H](Cc1c[nH]c2ccccc12)NC(=O)[C@@H](NC(=O)[C@H](CO)NC(=O)[C@H](CCCC)NC(=O)CNC(=O)[C@H](CCC(=O)O)NC(=O)C(C)(C)NC(=O)C(C)(C)NC(=O)[C@@H](NC(=O)[C@H](CCCCNC(C)=O)NC(=O)C(C)(C)NC(=O)[C@H](CCCNC(=N)N)NC(=O)[C@@H](NC(=O)[C@H](CCCCN)NC(=O)[C@H](CCC(=O)O)NC(=O)[C@H](CCCNC(=N)N)NC(=O)CNC(=O)[C@H](CCC(=O)O)NC(=O)[C@H](CC(C)C)NC(C)=O)C(C)C)[C@@H](C)CC)[C@@H](C)O)C(N)=O)C(=O)O)C(=O)O)C(=O)O) [peptide of SEQ ID NO: 36]
9 | 0.81 nM | 79% | Ac-LEGREKVRAK(Ac)I[Aib][Aib]EG[Nle]ST[1Nal]S[Aib]RK[PEG12]K([γGlu-γGlu-γGlu-Stearoyl])-NH2 (SMILES CCCCCCCCCCCCCCCCCC(=O)N[C@@H](CCC(=O)N[C@@H](CCC(=O)N[C@@H](CCC(=O)NCCCC[C@H](NC(=O)CCOCCOCCOCCOCCOCCOCCOCCOCCOCCOCCOCCOCCNC(=O)[C@H](CCCCN)NC(=O)[C@H](CCCNC(=N)N)NC(=O)C(C)(C)NC(=O)[C@H](CO)NC(=O)[C@H](Cc1cccc2ccccc12)NC(=O)[C@@H](NC(=O)[C@H](CO)NC(=O)[C@H](CCCC)NC(=O)CNC(=O)[C@H](CCC(=O)O)NC(=O)C(C)(C)NC(=O)C(C)(C)NC(=O)[C@@H](NC(=O)[C@H](CCCCNC(C)=O)NC(=O)[C@H](C)NC(=O)[C@H](CCCNC(=N)N)NC(=O)[C@@H](NC(=O)[C@H](CCCCN)NC(=O)[C@H](CCC(=O)O)NC(=O)[C@H](CCCNC(=N)N)NC(=O)CNC(=O)[C@H](CCC(=O)O)NC(=O)[C@H](CC(C)C)NC(C)=O)C(C)C)[C@@H](C)CC)[C@@H](C)O)C(N)=O)C(=O)O)C(=O)O)C(=O)O) [peptide of SEQ ID NO: 45]
10 | 0.03 nM | 91% | Ac-LEGREKVRAK(Ac)I[Aib][Aib]EG[Nle]STWXKRKK(Ac)[PEG12]K([γGlu-γGlu-γGlu-γGlu-Stearoyl])-NH2 (not fully specified (some residues); printed as Ac-L-E-G-R-E-K-V-R-A-K(Ac)-I-Aib-Aib-E-G-Nle-S-T-W-Mse-K-R-K-K(Ac)-PEG12-K(gE-gE-gE-gE-Stea)-NH2) [peptide of SEQ ID NO: 39]
